In one series the target is T1, SYCE2-TEX12core (human, UniProt Q6PIF2 57-165; Q9BXU0 49-123, RED dye (Monolith NT Protein Labelling Kit RED) in the MST only; which chain not stated | RED dye (Monolith NT Protein Labelling Kit RED) in the MST only; which chain not stated).
T1 construct: SYCE2 core; TEX12 core; Unlabelled in the SEC, labelled in the MST; source: E. coli BL21(DE3), purified
T1 sequence (looked up) 1: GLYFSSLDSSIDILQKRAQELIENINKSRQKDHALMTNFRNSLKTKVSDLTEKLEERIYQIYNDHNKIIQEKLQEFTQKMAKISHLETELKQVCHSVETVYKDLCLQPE
T1 sequence (looked up) 2: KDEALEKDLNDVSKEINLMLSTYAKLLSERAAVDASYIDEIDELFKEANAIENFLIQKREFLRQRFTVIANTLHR
The experiment in a line: MST; SYCE3 titrated into 150 nM labelled SYCE2-TEX12core; Monolith NT.115, excitation and MST power 40 %; apparent affinity. As to conditions: both partners purified.

A further series deals with T2, SYCP1αN V105E L109E (human, UniProt Q15431 101-362, V105E | L109E).
T2 construct: SYCP1αN, amino-acids 101-362, with V105E L109E; source: E. coli BL21(DE3), in complex with SYCE3
T2 sequence (looked up): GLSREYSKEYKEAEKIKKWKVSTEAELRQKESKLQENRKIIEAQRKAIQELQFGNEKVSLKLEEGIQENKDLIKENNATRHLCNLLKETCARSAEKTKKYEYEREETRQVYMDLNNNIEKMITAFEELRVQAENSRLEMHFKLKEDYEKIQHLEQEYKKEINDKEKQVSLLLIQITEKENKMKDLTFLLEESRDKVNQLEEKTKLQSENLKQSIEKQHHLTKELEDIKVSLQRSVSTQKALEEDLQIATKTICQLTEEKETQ
The experiment in a line: SEC-MALS; co-expressed and co-purified SYCP1-SYCE3 complexes, 5-20 mg/ml; 20 mM Tris pH 8.0, 150 mM KCl, 2 mM DTT (Superose 6 Increase for MBP-SYCP1αN-His-SYCE3). As to conditions: both partners purified. (In general: Size exclusion chromatography separates by hydrodynamic size, large species first.)

The target in series [1] is T3, SYCP1 αCore-ΔNtip (amino-acids 112-783) (human, UniProt Q15431 112-783).
T3 construct: SYCP1 α-helical core without the αNtip, amino-acids 112-783; also called SYCP1's full α-helical core, in which αNtips were deleted; source: E. coli BL21(DE3), purified, alone or in complex with SYCE3
T3 sequence (looked up): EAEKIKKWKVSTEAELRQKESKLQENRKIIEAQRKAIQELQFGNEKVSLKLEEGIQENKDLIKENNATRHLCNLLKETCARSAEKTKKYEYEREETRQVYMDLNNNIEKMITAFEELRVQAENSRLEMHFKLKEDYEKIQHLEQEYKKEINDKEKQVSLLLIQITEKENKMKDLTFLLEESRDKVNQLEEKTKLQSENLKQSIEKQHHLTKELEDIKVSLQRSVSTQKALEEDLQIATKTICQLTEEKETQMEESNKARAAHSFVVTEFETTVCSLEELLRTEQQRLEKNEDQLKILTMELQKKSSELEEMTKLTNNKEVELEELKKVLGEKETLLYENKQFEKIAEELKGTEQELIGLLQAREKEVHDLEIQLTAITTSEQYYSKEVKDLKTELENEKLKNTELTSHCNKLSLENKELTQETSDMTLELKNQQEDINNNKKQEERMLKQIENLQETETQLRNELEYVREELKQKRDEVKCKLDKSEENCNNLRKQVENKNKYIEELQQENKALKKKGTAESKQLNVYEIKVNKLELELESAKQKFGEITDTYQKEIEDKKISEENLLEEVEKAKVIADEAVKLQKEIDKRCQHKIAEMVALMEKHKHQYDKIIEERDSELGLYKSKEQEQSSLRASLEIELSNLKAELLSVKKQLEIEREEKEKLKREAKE
The description is as above. As to conditions: both partners purified.

Another series addresses T4, SYCP1αN ΔNtip (human, UniProt Q15431 112-362).
T4 construct: SYCP1αN (101-362) with the αNtip (101-111) deleted; also called SYCP1 ΔNtip; source: E. coli BL21(DE3), co-purified with SYCE3
T4 sequence (looked up): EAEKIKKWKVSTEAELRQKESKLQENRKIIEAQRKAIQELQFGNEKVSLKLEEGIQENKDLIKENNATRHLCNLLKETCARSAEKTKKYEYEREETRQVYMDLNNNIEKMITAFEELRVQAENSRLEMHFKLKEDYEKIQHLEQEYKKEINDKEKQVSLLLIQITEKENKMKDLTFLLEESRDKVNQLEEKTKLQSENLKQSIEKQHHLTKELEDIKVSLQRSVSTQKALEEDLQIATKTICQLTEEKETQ
The description is as above. Particulars: both partners purified.

In series [2] the target is T5, SYCP1αNcore (amino-acids 206-362) (human, UniProt Q15431 206-362).
T5 construct: SYCP1 αNcore (tetrameric core), amino-acids 206-362; Tetramer alone (SEC-MALS); two chains in the 2:1 complex with SYCE3; also called SYCP1 tetrameric core; source: E. coli BL21(DE3), purified alone or co-expressed and co-purified with SYCE3 (amylose, TEV, anion exchange, SEC); not shown: MBP, N-terminal, cleaved
T5 sequence (looked up): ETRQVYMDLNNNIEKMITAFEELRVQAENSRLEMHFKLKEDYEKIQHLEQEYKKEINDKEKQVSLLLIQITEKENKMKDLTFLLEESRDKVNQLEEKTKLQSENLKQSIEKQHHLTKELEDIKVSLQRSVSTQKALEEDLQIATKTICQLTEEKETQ
The description is as above. Particulars: both partners purified.

In series [3] the target is T6, SYCP1αN (amino-acids 101-362) (human, UniProt Q15431 101-362).
T6 construct: SYCP1 α-helical N-terminal region, amino-acids 101-362; source: E. coli BL21(DE3), purified, alone or co-expressed and co-purified with SYCE3
T6 sequence (looked up): T2 sequence (looked up) with E5V, E9L
The description is as above. Particulars: both partners purified.

Series [4] deals with the molecule itself. The experiment in a line: SEC-MALS; proteins in isolation, 5-20 mg/ml; Superdex 200 Increase, 20 mM Tris pH 8.0, 150 mM KCl, 2 mM DTT.
Series [5] deals with T5, SYCP1αNcore (amino-acids 206-362). The experiment in a line: ITC; SYCE3 (400 μM) injected into SYCP1αNcore (70 μM) at 30°C; 25 mM Tris pH 8.0, 250 mM KCl, 2 mM DTT; apparent affinity. Particulars: both partners purified. For orientation: Isothermal titration calorimetry measures the heat released or taken up as one component is titrated into another.

Changes are numbered by the printed parent chain. Where “and” joins values, the source holds several entries; their conditions need not be identical. Equal values may be shown once.

B1: SYCE3 (natural protein, human, UniProt A1L190 1-88, looked up)
chain: MDDADPEERNYDNMLKMLSDLNKDLEKLLEEMEKISVQATWMAYDMVVMRTNPTLAESMRRLEDAFVNCKEEMEKNWQELLHETKQRL
notes: SYCE3 without a stated truncation; Dimer alone (SEC-MALS); one chain in the 2:1 complex with SYCP1; also called SYCE3 wild-type; free SYCE3; source: E. coli BL21(DE3), purified (Ni-NTA or amylose, TEV, anion exchange, SEC), alone or co-purified with SYCP1 constructs; not shown: His or His-MBP, N-terminal, cleaved
Take B1: the Kd turned out to be 21800 nM with SYCE2-TEX12core and 170 nM in series [5]. The “stoichiometry N” value was 2 SYCP1 chains per SYCE3 chain in the series with SYCP1αN V105E L109E; 2 SYCP1 chains per SYCE3 chain in series [1]; 2 SYCP1 chains per SYCE3 chain with SYCP1αN ΔNtip; 2 SYCP1 chains per SYCE3 chain in series [2]; 2 SYCP1 chains per SYCE3 chain (2:1) and 4 SYCP1 chains with 2 SYCE3 chains (4:2) in series [3]; 2 in series [4]. In addition, in series [5], the “apparent KD of one replicate” value is 230 nM and 120 nM and 160 nM.

Usually stoichiometry N stands for a count of units in the complex or per binding partner.

These data come from paper PMC7614228, “Structural maturation of SYCP1-mediated meiotic chromosome synapsis by SYCE3” (Nature structural & molecular biology, 2023).
